The chains are these.
B1: mAb OMS870 (mouse-human chimeric, mouse parental variable regions) (antibody, human IgG4 S228P, kappa, V domains shown)
VH: EVQLQQPGTELVKPGASVKLSCKASGYTFTSYWMHWVKQRPGQGLEWIGNINPSNGGTNCNEKFKNKATMTVDKSSSTAYMQLSSLTSEDSAVYYCARWAYDAMDYWGQGTSVTVSS
VL: DIVLTQSPASLAVSLGQRATISCRASESVDSYGNSFMHWYQQKPGQAPKLLIYFASNLESGVPARFSGSGSRTDFTLTIDPVEADDAATYFCQQSNEDPLTFGAGTKLELKR
B2: mAb OMS850 (mouse-human chimeric, mouse parental variable regions) (antibody, human IgG4 S228P, kappa, V domains shown)
VH: QVQLQQPGAELVRPGSSVRLSCKASGYTFTNYWMHWLKQRPIQGLEWIGDIDPSDSETHYIEKFKDKATLTIDKSSSTAYMHLSSLTSEDSAIYYCARGDITTTLRYFDVWGTGTTVTVSS
VL: QIVLTQSPVIMSASPGEKVTMTCSASSSVRYMYWYQQKPGSSPRLLIYDTSNLASGVPVRFSGSGSGTSNSLTISRMEAEDAATYYCQQWSSYPLTFGAGTKLELKR
notes: also called OMS850 parent
B3: mAb OMS860 (mouse-human chimeric, mouse parental variable regions) (antibody, human IgG4 S228P, kappa, V domains shown)
VH: B2 VH with R19K, L37V, K38R, T58I, H59Y, I61N, E62Q, I72V, I93V
VL: B2 VL with M21I, R30S
B4: OMS850_VH_P53/N (antibody, IgG4, V domains shown)
VH: B2 VH with P53N
VL: B2 VL
B5: OMS850_VH_P53/A (antibody, IgG4, V domains shown)
VH: B2 VH with P53A
VL: B2 VL
B6: OMS850_VH_P53/D (antibody, IgG4, V domains shown)
VH: B2 VH with P53D
VL: B2 VL
B7: OMS854 (monoclonal antibody OMS852 4PA-1) (antibody, V domains shown)
VH: QVQLVQSGAEVKKPGASVKVSCKASGYTFTNYWMHWLRQAPGQGLEWIGDIDASDSETHYIEKFKDRATLTIDKSSSTAYMELSSLRSEDTAVYYCARGDITTTLRYFDVWGQGTLVTVSS
VL: DIQLTQSPSSLSASVGDRVTITCSASSSVRYMYWYQQKPGKAPKLLIYDTSNLASGVPSRFSGSGSGTDNTLTISSLQPEDFATYYCQQWSSYPLTFGQGTKVEIKR

From patent US20230265215A1 (OMEROS, published 2023) come the findings set out here.

Changes are numbered by the printed parent chain. “And” between values parts separate entries of the source, which are not always exact repeats. Identical values can stand only once.

Sequence of rat MASP-2 (endogenous, in rat serum) (Q9JJS8 other isoform, or with tags, fused parts or gaps limits assumed): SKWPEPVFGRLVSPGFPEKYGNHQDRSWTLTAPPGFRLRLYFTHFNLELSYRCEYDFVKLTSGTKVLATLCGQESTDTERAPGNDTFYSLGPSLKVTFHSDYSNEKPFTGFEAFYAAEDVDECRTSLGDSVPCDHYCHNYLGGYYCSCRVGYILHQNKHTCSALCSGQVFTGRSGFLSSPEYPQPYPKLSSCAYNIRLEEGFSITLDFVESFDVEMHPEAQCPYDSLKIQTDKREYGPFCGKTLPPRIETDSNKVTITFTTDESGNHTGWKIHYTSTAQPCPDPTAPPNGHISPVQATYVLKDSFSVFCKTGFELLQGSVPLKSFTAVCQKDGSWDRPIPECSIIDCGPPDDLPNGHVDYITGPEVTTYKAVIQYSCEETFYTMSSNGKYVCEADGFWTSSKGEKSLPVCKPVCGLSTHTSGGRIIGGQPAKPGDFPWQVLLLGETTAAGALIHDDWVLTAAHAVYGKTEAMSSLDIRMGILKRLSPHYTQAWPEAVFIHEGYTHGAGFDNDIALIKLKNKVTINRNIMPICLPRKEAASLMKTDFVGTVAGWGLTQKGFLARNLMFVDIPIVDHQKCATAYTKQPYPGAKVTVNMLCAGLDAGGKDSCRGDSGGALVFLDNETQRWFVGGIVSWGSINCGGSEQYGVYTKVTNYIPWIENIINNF

The target of the first assay is T1, human MASP-2 (endogenous, in normal human serum) (human, UniProt O00187 16-686). In words: cell-based or functional assay.
T1 sequence (O00187 16-686 limits assumed): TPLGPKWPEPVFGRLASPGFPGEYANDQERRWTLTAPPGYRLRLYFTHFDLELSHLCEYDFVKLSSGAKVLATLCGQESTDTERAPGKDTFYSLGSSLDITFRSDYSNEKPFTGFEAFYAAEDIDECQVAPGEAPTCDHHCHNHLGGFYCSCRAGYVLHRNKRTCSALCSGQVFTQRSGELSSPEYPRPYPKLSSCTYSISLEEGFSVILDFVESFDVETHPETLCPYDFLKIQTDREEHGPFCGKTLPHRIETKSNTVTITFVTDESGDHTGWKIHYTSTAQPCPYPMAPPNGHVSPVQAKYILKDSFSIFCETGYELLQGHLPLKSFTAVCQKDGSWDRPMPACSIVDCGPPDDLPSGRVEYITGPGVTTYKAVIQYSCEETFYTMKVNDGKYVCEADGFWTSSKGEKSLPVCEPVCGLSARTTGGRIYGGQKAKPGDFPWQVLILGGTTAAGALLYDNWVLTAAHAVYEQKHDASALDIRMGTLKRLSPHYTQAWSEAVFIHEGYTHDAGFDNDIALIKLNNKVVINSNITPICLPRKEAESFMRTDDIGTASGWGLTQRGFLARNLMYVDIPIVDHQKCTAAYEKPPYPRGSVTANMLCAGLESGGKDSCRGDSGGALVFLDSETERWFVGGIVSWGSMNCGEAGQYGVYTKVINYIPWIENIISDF
With B1, the “C3b deposition on mannan, 1.0% human serum, IC50” value is 0.13 nM.
As to B2, the “C3b deposition on mannan, 1.0% human serum, IC50” value was 0.15 nM.
Take B3: the “C3b deposition on mannan, 1.0% human serum, IC50” value is 0.6 nM.

For the next assay, the target named is cynomolgus monkey MASP-2 (endogenous, in cynomolgus monkey serum) (cynomolgus monkey, UniProt O00187 16-686 (human entry), limits assumed). Put plainly: cell-based or functional assay.
Sequence of cynomolgus monkey MASP-2 (endogenous, in cynomolgus monkey serum) (O00187 other isoform, or with tags, fused parts or gaps limits assumed): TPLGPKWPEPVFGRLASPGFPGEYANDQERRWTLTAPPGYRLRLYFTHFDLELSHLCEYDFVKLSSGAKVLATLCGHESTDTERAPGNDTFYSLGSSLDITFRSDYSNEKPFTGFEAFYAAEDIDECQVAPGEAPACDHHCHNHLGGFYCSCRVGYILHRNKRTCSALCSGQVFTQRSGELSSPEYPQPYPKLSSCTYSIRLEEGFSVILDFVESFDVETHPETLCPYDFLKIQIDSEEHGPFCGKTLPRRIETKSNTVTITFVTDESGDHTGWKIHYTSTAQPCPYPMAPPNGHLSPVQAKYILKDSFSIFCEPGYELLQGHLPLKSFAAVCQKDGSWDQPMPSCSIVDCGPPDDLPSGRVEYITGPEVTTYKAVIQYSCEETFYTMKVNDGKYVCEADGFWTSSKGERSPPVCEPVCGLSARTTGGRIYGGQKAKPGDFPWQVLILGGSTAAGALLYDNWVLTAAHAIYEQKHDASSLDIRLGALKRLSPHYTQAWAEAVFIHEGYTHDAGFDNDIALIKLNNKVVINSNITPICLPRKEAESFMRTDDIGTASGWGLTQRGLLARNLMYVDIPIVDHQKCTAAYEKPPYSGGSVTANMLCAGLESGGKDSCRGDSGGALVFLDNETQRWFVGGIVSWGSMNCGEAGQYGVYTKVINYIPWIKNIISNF
B1: the “C3b deposition on mannan, 0.25% cynomolgus monkey serum, IC50” value is 18.9 nM.
In the case of B2, the “C3b deposition on mannan, 0.25% cynomolgus monkey serum, IC50” value is 0.4 nM.
For the molecule B3, the “C3b deposition on mannan, 0.25% cynomolgus monkey serum, IC50” value was 26.2 nM.

Another assay concerns the target rat MASP-2 (endogenous, in rat serum) (rat, UniProt Q9JJS8 20-685). Put plainly: cell-based or functional assay.
Take B1: the “C3b deposition on mannan, 0.3% rat serum, IC50” value was found to be 0.6 nM.
As for B2, the “C3b deposition on mannan, 0.3% rat serum, IC50” value is 0.05 nM.
Consider B3, for which the “C3b deposition on mannan, 0.3% rat serum, IC50” value is 0.3 nM.

A further assay deals with mouse MASP-2 (endogenous, in mouse serum or hirudin plasma) (mouse, UniProt Q91WP0 20-685). Put plainly: cell-based or functional assay.
Sequence of mouse MASP-2 (endogenous, in mouse serum or hirudin plasma) (Q91WP0 20-685 limits assumed): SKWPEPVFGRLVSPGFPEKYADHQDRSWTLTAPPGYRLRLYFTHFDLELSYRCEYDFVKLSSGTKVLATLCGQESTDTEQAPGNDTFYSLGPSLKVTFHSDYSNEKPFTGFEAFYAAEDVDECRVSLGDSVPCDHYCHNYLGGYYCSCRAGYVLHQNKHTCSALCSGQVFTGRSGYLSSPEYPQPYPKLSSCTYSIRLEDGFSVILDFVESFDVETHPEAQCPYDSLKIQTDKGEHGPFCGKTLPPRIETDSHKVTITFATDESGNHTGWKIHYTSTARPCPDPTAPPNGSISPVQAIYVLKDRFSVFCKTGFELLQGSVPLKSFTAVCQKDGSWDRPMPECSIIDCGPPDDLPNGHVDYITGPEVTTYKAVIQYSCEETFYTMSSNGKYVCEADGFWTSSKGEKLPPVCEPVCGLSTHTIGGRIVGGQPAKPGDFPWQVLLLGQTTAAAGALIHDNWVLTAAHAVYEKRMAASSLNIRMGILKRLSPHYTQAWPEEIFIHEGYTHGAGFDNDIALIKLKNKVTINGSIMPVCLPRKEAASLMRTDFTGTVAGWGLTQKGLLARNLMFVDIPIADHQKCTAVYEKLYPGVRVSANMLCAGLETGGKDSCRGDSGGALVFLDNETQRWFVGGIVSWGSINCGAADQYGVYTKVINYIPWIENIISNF
Turning to B1, the “C3b deposition on mannan, 1.0% mouse serum, IC50” value was > 100 nM.
As to B2, the “C3b deposition on mannan, 1.0% mouse serum, IC50” value worked out at 0.5 nM.
Take B3: the “C3b deposition on mannan, 1.0% mouse serum, IC50” value was found to be 5.8 nM.

For the next assay, the target named is T1, human MASP-2 (endogenous, in normal …). In words: cell-based or functional assay. The source holds these as a separate data set.
Consider B1, for which the “C4b deposition on mannan, 50% human serum, IC50” value turned out to be 0.09 µg/mL.
As to B2, the “C4b deposition on mannan, 50% human serum, IC50” value was determined as 0.07 µg/mL.
Same read-out and setting: the same measure for B3: 0.1 µg/mL.

The target is the same in the next assay. In words: cell-based or functional assay. The source holds these as a separate data set.
For the molecule B2, the “Human C3b deposition, IC50” value came to 0.09 nM.
On to B4, for which the “Human C3b deposition, IC50” value stood at 0.53 nM.
With B5, the “Human C3b deposition, IC50” value is 0.07 nM.
For B6, the “Human C3b deposition, IC50” value came out at 0.16 nM.

For a further assay the target is unchanged. In words: cell-based or functional assay. This is another data set of the same source.
As for B7, the “Human C3b deposition, 1% human serum, IC50” value amounted to 0.09 nM.
As for B2, the “Human C3b deposition, 1% human serum, IC50” value was 0.15 nM and 0.12 nM.

For a further assay, the target named is T2, human MASP-2 (CCP1-CCP2-SP fragment) (human, UniProt O00187 287-686, limits assumed).
T2 construct: also called human MASP-2 (CCP1/2/SP fragment); hMASP-2-CCP1-CCP2-SP
T2 sequence (O00187 287-686 limits assumed): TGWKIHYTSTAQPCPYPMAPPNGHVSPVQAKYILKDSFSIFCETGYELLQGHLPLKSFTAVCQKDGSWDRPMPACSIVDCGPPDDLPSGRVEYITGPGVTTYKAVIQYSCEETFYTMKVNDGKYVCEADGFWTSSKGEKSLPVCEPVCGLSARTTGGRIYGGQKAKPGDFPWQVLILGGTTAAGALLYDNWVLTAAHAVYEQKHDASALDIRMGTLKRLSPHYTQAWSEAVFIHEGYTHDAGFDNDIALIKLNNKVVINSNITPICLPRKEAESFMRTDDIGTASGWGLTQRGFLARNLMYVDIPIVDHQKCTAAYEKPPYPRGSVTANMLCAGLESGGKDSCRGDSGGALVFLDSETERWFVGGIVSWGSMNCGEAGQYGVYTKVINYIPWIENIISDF
In words: solid phase ELISA, plate coated with human MASP-2 CCP1-CCP2-SP fragment. Here is the method:
To measure binding of the 26 purified recombinant MASP-2 antibodies to human MASP-2 (CCP1-CCP2-SP fragment), a solid phase ELISA assay was carried out as follows. A MaxiSorp ELISA plate was coated with human MASP-2 (CCP1/2/SP fragment) at 1.0 μg/mL in carbonate/bi-carbonate buffer overnight at 4° C. […] The plate was washed (PBS-T, 0.05%) and a detection antibody was added (goat anti-human IgG-HRP) for one hour at room temperature. After another wash (PBS-T, 0.05%) the plate was developed (5 minutes) with OPT EIA TMB (BD Biosciences #555214). Absorbance reading at A450 was measured using the Spectramax M5e plate reader.
A solid phase ELISA assay was carried out to measure binding of the three selected MASP-2 inhibitory antibodies to human MASP-2 (CCP1-CCP2-SP fragment), as described in Example 1.
B1 yielded an EC50 of 0.41 nM.
Regarding B2, the EC50 was found to be 0.25 nM.
As for B3, the response was half-maximal at 0.23 nM (EC50).

For orientation: EC50 means the concentration needed to bring the measured effect to its halfway point.
